Measured values as given in publication PMC5900715 (Genes & Development, 2018).
Ends that are not written are not given here.

Biological target: MDM2 NTD polypeptide (residues 10–139) (UniProt Q00987 10-139)
Experiment: fluorescence polarisation

| Binder | binding result |
| --- | --- |
| fluorescein-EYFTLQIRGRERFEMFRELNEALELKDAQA [wild-type p53 OD peptide (residues 326–355)] | binds |
| fluorescein-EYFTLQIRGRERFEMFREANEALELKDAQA (also: dimeric) [dimeric mutant p53 OD peptide (L344A, residues 326–355)] | binds |
